Results published in paper PMC5018835.
Values belong to the binder of their own block, whether it stands above or below them.

Legend:
[1] = biological target: Hsp82p:Hsp82p^LL heterodimer (S. cerevisiae), P02829
[2] = biological target: Hsp82p:Hsp82p^V391E/LL heterodimer (S. cerevisiae), P02829

- inhibition of the ATPase activity of Hsp82p:Hsp82p^LL heterodimers (1 μM + 5 μM) by titrated Hch1p (~16% at 2.5 μM, ~11% at 5 μM, overcome at higher concentrations; Fig. 2C) [1]: 16%
B1: Hch1p (N-terminal 6xHis tag), P53834 1-153 (natural protein)
chain: MVVLNPNNWHWVDKNTLPWSKDYLNGKLTSLSTVSSDGKSKIELTQVSSITGDSNVSQRKGKPICYFDLQLSMNVKVTNLDTNKDDEDDDGILADGKLEIPEFMHDESDIPILSQGFDAFDGLVRSEFVPKVVETLLKYQDDLIKEHSKDIQV

- apparent affinity (Kapp) from the fit of ATPase stimulation of Hsp82p:Hsp82p^V391E/LL heterodimers (1 μM + 5 μM) against Aha1p concentration (Fig. 3E) [2]: 0.8 µM
B2: Aha1p (full length, N-terminal 6xHis tag), Q12449 1-350 (natural protein)
chain: MVVNNPNNWHWVDKNCIGWAKEYFKQKLVGVEAGSVKDKKYAKIKSVSSIEGDCEVNQRKGKVISLFDLKITVLIEGHVDSKDGSALPFEGSINVPEVAFDSEASSYQFDISIFKETSELSEAKPLIRSELLPKLRQIFQQFGKDLLATHGNDIQVPESQVKSNYTRGNQKSSFTEIKDSASKPKKNALPSSTSTSAPVSSTNKVPQNGSGNSTSIYLEPTFNVPSSELYETFLDKQRILAWTRSAQFFNSGPKLETKEKFELFGGNVISELVSCEKDKKLVFHWKLKDWSAPFNSTIEMTFHESQEFHETKLQVKWTGIPVGEEDRVRANFEEYYVRSIKLTFGFGAVL
